Laboratory results published in PMC2670979.

B1: GST-Miro1 WT [not stated] / KIF5C [modified: 35S-methionine label; 35S-methionine label] [not stated] (parent)
chain 1: MKKDVRILLVGEPRVGKTSLIMSLVSEEFPEEVPPRAEEITIPADVTPERVPTHIVDYSEAEQSDEQLHQEISQANVICIVYAVNNKHSIDKVTSRWIPLINERTDKDSRLPLILVGNKSDLVEYSSMETILPIMNQYTEIETCVECSAKNLKNISELFYYAQKAVLHPTGPLYCPEEKEMKPACIKALTRIFKISDQDNDGTLNDAELNFFQRICFNTPLAPQALEDVKNVVRKHISDGVADSGLTLKGFLFLHTLFIQRGRHETTWTVLRRFGYDDDLDLTPEYLFPLLKIPPDCTTELNHHAYLFLQSTFDKHDLDRDCALSPDELKDLFKVFPYIPWGPDVNNTVCTNERGWITYQGFLSQWTLTTYLDVQRCLEYLGYLGYSILTEQESQASAVTVTRDKKIDLQKKQTQRNVFRCNVIGVKNCGKSGVLQALLGRNLMRQKKIREDHKSYYAINTVYVYGQEKYLLLHDISESEFLTEAEIICDVVCLVYDVSNPKSFEYCARIFKQHFMDSRIPCLIVAAKSDLHEVKQEYSISPTDFCRKHKMPPPQAFTCNTADAPSKDIFVKLTTMAMYPHVTQADLKSSTFWLRASFGATVFAVLGFAMYKALLKQR
chain 2: MADPAECSIKVMCRFRPLNEAEILRGDKFIPKFKGDETVVIGQGKPYVFDRVLPPNTTQEQVYNACAKQIVKDVLEGYNGTIFAYGQTSSGKTHTMEGKLHDPQLMGIIPRIAHDIFDHIYSMDENLEFHIKVSYFEIYLDKIRDLLDVSKTNLAVHEDKNRVPYVKGCTERFVSSPEEVMDVIDEGKANRHVAVTNMNEHSSRSHSIFLINIKQENVETEKKLSGKLYLVDLAGSEKVSKTGAEGAVLDEAKNINKSLSALGNVISALAEGTKTHVPYRDSKMTRILQDSLGGNCRTTIVICCSPSVFNEAETKSTLMFGQRAKTIKNTVSVNLELTAEEWKKKYEKEKEKNKTLKNVIQHLEMELNRWRNGEAVPEDEQISAKDQKNLEPCDNTPIIDNIAPVVAGISTEEKEKYDEEISSLYRQLDDKDDEINQQSQLAEKLKQQMLDQDELLASTRRDYEKIQEELTRLQIENEAAKDEVKEVLQALEELAVNYDQKSQEVEDKTRANEQLTDELAQKTTTLTTTQRELSQLQELSNHQKKRATEILNLLLKDLGEIGGIIGTNDVKTLADVNGVIEEEFTMARLYISKMKSEVKSLVNRSKQLESAQMDSNRKMNASERELAACQLLISQHEAKIKSLTDYMQNMEQKRRQLEESQDSLSEELAKLRAQEKMHEVSFQDKEKEHLTRLQDAEEMKKALEQQMESHREAHQKQLSRLRDEIEEKQKIIDEIRDLNQKLQLEQEKLSSDYNKLKIEDQEREMKLEKLLLLNDKREQAREDLKGLEETVSRELQTLHNLRKLFVQDLTTRVKKSVELDNDDGGGSAAQKQKISFLENNLEQLTKVHKQLVRDNADLRCELPKLEKRLRATAERVKALESALKEAKENAMRDRKRYQQEVDRIKEAVRAKNMARRAHSAQIAKPIRPGHYPASSPTAVHAIRGGGGSSSNSTHYQK

Variants of: B1
Assay: GST pull-down of in vitro translated 35S-labeled protein
Details: with KIF5C [modified: 35S-methionine label, 2 mM Ca2+, normalized to 100 at 0 mM Ca2+, parent: 70, read off a plot

Row | Variant | screen value
1 | chain 1 E208K E328K | 98
